Common to all, as to experiment: cell-based or functional assay
One test has as its target glucagon receptor (UniProt P47871 26-477, limits assumed).
A further test deals with GLP-1 receptor (UniProt P43220 24-463, limits assumed).
The target in the next test is T1, GIP receptor (UniProt P48546 22-466, limits assumed).
T1 sequence (looked up): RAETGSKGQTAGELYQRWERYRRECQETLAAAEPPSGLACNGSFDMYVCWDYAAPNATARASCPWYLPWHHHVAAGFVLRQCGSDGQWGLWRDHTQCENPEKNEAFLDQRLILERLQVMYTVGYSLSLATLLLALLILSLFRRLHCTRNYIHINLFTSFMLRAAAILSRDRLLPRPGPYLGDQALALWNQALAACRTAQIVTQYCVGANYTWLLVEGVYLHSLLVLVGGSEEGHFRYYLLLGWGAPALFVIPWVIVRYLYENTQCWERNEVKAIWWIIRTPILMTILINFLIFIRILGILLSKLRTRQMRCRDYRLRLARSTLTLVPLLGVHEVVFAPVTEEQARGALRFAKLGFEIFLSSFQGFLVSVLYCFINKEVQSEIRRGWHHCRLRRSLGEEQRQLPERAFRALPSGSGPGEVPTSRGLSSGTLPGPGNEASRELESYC

*1 amine or outer side, *2 acyl side, *3 side chain or, on linkers, in order; H or OH if unused. Where no end group is shown, it is not given here. Side-chain parts run from the residue outwards. [ ]: non-standard residue; d: D form. The star is where a group is joined. γGlu = O=C(O)[C@H](CCC(=O)[*:2])N[*:1]; Palmitoyl = CCCCCCCCCCCCCCCC(=O)*; Myristoyl = CCCCCCCCCCCCCC(=O)*; Lauroyl = CCCCCCCCCCCC(=O)*; 40K‑ME = not defined here; 40K‑TE = not defined here; Ac3c = NC1(C(=O)O)CC1; Aib = CC(C)(N)C(=O)O

Sequence of glucagon receptor (P47871 26-477 limits assumed): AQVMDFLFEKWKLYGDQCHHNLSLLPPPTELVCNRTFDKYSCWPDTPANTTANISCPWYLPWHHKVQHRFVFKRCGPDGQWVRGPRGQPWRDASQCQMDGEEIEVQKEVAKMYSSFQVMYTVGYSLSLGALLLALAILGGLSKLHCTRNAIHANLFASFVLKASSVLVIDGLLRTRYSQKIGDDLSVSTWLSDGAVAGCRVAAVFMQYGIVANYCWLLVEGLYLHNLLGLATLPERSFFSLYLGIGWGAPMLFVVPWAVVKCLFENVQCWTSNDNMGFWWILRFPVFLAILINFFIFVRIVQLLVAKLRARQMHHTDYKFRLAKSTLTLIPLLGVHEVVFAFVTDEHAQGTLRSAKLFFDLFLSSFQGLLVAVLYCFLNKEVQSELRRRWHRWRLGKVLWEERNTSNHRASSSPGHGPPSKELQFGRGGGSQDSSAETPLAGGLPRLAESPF

B1: peptide of SEQ ID NO: 172 (peptide)
peptide: Y[Aib]QGTFTSDYSIYLDKQAA[Aib]EFVC(40K‑TE PEG)WLLAGGPSSGAPPPSK(C8)-NH2
Take B1: the “EC50 (cAMP reporter)” value with glucagon receptor was determined as 3.06 nM; with GLP-1 receptor, 0.108 nM; in the test with GIP receptor it was 0.487 nM.

B2: peptide of SEQ ID NO: 68 (peptide)
peptide: Y[Aib]QGTFTSDK([γGlu-Myristoyl])SIYLDKQAA[Aib]EFVNWLLAGGPSSGAPPPSC(40K‑ME)-NH2
modifications: reading uncertain
With B2, the “EC50 (cAMP reporter)” value with glucagon receptor turned out to be 50.1 nM; with GLP-1 receptor it was 0.612 nM; with GIP receptor, 0.862 nM.

B3: peptide of SEQ ID NO: 72 (peptide)
peptide: Y[Aib]EGTFISDYSIYLDKQAA[Aib]EFVNWLLAGGPSSGAPPPSC(40K‑TE)-NH2
modifications: not fully specified; reading uncertain
Regarding B3, the “EC50 (cAMP reporter)” value in the test with glucagon receptor came to 1.68 nM; with GLP-1 receptor, 2.69 nM; with GIP receptor it was 0.035 nM.

B4: peptide of SEQ ID NO: 59 (peptide)
peptide: Y[Aib]QGTFTSDYSIYLDKEAA[Aib]KFVNWLLAGGPSSGAPPPSC(40K‑TE)-NH2
modifications: lactam (positions not given here); reading uncertain; also: lactam between underlined residues, underlining not shown
Regarding B4, the “EC50 (cAMP reporter)” value with glucagon receptor is 0.432 nM; with GLP-1 receptor, 0.063 nM; with GIP receptor it was 0.122 nM.

B5: peptide of SEQ ID NO: 173 (peptide)
peptide: Y[Aib]QGTFTSDYSIYLDKQAA[Aib]EFVC(40K‑TE PEG)WLLAGGPSSGAPPPSK(Lauroyl)-NH2
B5: the “EC50 (cAMP reporter)” value is 0.19 nM with glucagon receptor, 0.011 nM with GLP-1 receptor and 0.089 nM with GIP receptor.

B6: peptide of SEQ ID NO: 75 (peptide)
peptide: Y[Aib]QGTFISDYSIYLDKQAA[Ac3c]EFVNWLLAGGPSSGAPPPSC(40K‑TE)-NH2
modifications: not fully specified; reading uncertain
Consider B6, for which the “EC50 (cAMP reporter)” value was determined as 3.12 nM in the test with glucagon receptor, 17.7 nM in the test with GLP-1 receptor and 2.44 nM in the test with GIP receptor.

B7: peptide of SEQ ID NO: 175 (peptide)
peptide: Y[Aib]EGTFTSDYSIYLDKQAA[Aib]EFVNWLLAGGPSSGAPPPSC(PEG 40 kDa)-NH2
For B7, the “EC50 (cAMP reporter)” value amounted to 0.62 nM with glucagon receptor, 0.066 nM with GLP-1 receptor and 0.1 nM with GIP receptor.

B8: peptide of SEQ ID NO: 81 (peptide)
peptide: Y[Aib]QGTFTSDK([γGlu-γGlu-Palmitoyl])SIYLDKQAA[Aib]EFVNWLLAGGPSSGAPPPS-NH2
modifications: N-terminus assumed
SMILES: CCCCCCCCCCCCCCCC(=O)N[C@@H](CCC(=O)N[C@@H](CCC(=O)NCCCC[C@H](NC(=O)[C@H](CC(=O)O)NC(=O)[C@H](CO)NC(=O)[C@@H](NC(=O)[C@H](Cc1ccccc1)NC(=O)[C@@H](NC(=O)CNC(=O)[C@H](CCC(N)=O)NC(=O)C(C)(C)NC(=O)[C@@H](N)Cc1ccc(O)cc1)[C@@H](C)O)[C@@H](C)O)C(=O)N[C@@H](CO)C(=O)N[C@H](C(=O)N[C@@H](Cc1ccc(O)cc1)C(=O)N[C@@H](CC(C)C)C(=O)N[C@@H](CC(=O)O)C(=O)N[C@@H](CCCCN)C(=O)N[C@@H](CCC(N)=O)C(=O)N[C@@H](C)C(=O)N[C@@H](C)C(=O)NC(C)(C)C(=O)N[C@@H](CCC(=O)O)C(=O)N[C@@H](Cc1ccccc1)C(=O)N[C@H](C(=O)N[C@@H](CC(N)=O)C(=O)N[C@@H](Cc1c[nH]c2ccccc12)C(=O)N[C@@H](CC(C)C)C(=O)N[C@@H](CC(C)C)C(=O)N[C@@H](C)C(=O)NCC(=O)NCC(=O)N1CCC[C@H]1C(=O)N[C@@H](CO)C(=O)N[C@@H](CO)C(=O)NCC(=O)N[C@@H](C)C(=O)N1CCC[C@H]1C(=O)N1CCC[C@H]1C(=O)N1CCC[C@H]1C(=O)N[C@@H](CO)C(N)=O)C(C)C)[C@@H](C)CC)C(=O)O)C(=O)O
Take B8: the “EC50 (cAMP reporter)” value was 0.073 nM with glucagon receptor, 0.008 nM with GLP-1 receptor and 0.005 nM in the test with GIP receptor.

B9: peptide of SEQ ID NO: 73 (peptide)
peptide: YXEGTFTSDYSIYLDKQAAXEFVNWLLAGGPSSGAPPPSC
modifications: not fully specified; aib at 2; acpc at 20; C-terminal C(40K-TE); NH2
With B9, the “EC50 (cAMP reporter)” value is around 10 nM with glucagon receptor, 0.91 nM in the test with GLP-1 receptor and 1.56 nM in the test with GIP receptor.

B10: peptide of SEQ ID NO: 58 (peptide)
peptide: Y[Aib]QGTFTSDYSIYLDKEAA[Aib]KFVNWLLAGGPSSGAPPPSC-NH2
modifications: lactam (positions not given here); also: lactam between underlined residues, underlining not shown
B10: the “EC50 (cAMP reporter)” value was 0.063 nM in the test with glucagon receptor, 0.014 nM with GLP-1 receptor and 0.005 nM in the test with GIP receptor.

B11: peptide of SEQ ID NO: 69 (peptide)
peptide: Y[Aib]QGTFTSDK([γGlu-Palmitoyl])SIYLDKQAA[Aib]EFVNWLLAGGPSSGAPPPSC(40K‑ME)-NH2
modifications: reading uncertain
B11: the “EC50 (cAMP reporter)” value was 0.055 nM with glucagon receptor, 0.02 nM with GLP-1 receptor and 0.015 nM with GIP receptor.

B12: peptide of SEQ ID NO: 74 (peptide)
peptide: H[Aib]QGTFISDYSIYLDKQAA[Ac3c]EFVNWLLAGGPSSGAPPPSC(40K‑TE)-NH2
modifications: not fully specified; reading uncertain
B12: the “EC50 (cAMP reporter)” value with glucagon receptor is 2.52 nM; in the test with GLP-1 receptor it was 6.42 nM; with GIP receptor, 2.54 nM.

B13: peptide of SEQ ID NO: 70 (peptide)
peptide: Y[Aib]QGTFTSDYSIYLDKQAA[Aib]EFVC(40K‑ME)WLLAGGPSSGAPPPSK(Palmitoyl)-NH2
modifications: not fully specified; reading uncertain
For the molecule B13, the “EC50 (cAMP reporter)” value with glucagon receptor stood at 0.018 nM; in the test with GLP-1 receptor it was 0.007 nM; with GIP receptor it was 0.014 nM.

B14: peptide of SEQ ID NO: 79 (peptide)
peptide: H[Aib]QGTFTSDK([γGlu-Palmitoyl])SKYLDERRA[Aib]EFVQWLLDGGPSSGAPPPS-NH2
modifications: N-terminus assumed
SMILES: CCCCCCCCCCCCCCCC(=O)N[C@@H](CCC(=O)NCCCC[C@H](NC(=O)[C@H](CC(=O)O)NC(=O)[C@H](CO)NC(=O)[C@@H](NC(=O)[C@H](Cc1ccccc1)NC(=O)[C@@H](NC(=O)CNC(=O)[C@H](CCC(N)=O)NC(=O)C(C)(C)NC(=O)[C@@H](N)Cc1c[nH]cn1)[C@@H](C)O)[C@@H](C)O)C(=O)N[C@@H](CO)C(=O)N[C@@H](CCCCN)C(=O)N[C@@H](Cc1ccc(O)cc1)C(=O)N[C@@H](CC(C)C)C(=O)N[C@@H](CC(=O)O)C(=O)N[C@@H](CCC(=O)O)C(=O)N[C@@H](CCCNC(=N)N)C(=O)N[C@@H](CCCNC(=N)N)C(=O)N[C@@H](C)C(=O)NC(C)(C)C(=O)N[C@@H](CCC(=O)O)C(=O)N[C@@H](Cc1ccccc1)C(=O)N[C@H](C(=O)N[C@@H](CCC(N)=O)C(=O)N[C@@H](Cc1c[nH]c2ccccc12)C(=O)N[C@@H](CC(C)C)C(=O)N[C@@H](CC(C)C)C(=O)N[C@@H](CC(=O)O)C(=O)NCC(=O)NCC(=O)N1CCC[C@H]1C(=O)N[C@@H](CO)C(=O)N[C@@H](CO)C(=O)NCC(=O)N[C@@H](C)C(=O)N1CCC[C@H]1C(=O)N1CCC[C@H]1C(=O)N1CCC[C@H]1C(=O)N[C@@H](CO)C(N)=O)C(C)C)C(=O)O
Regarding B14, the “EC50 (cAMP reporter)” value with glucagon receptor amounted to 0.004 nM; in the test with GLP-1 receptor, 0.006 nM; in the test with GIP receptor it was 0.003 nM.

B15: peptide of SEQ ID NO: 80 (peptide)
peptide: H[Aib]EGTFTSDK([γGlu-Palmitoyl])SKYLDERAAQDFVQWLLDGGPSSGAPPPS-NH2
modifications: N-terminus assumed
SMILES: CCCCCCCCCCCCCCCC(=O)N[C@@H](CCC(=O)NCCCC[C@H](NC(=O)[C@H](CC(=O)O)NC(=O)[C@H](CO)NC(=O)[C@@H](NC(=O)[C@H](Cc1ccccc1)NC(=O)[C@@H](NC(=O)CNC(=O)[C@H](CCC(=O)O)NC(=O)C(C)(C)NC(=O)[C@@H](N)Cc1c[nH]cn1)[C@@H](C)O)[C@@H](C)O)C(=O)N[C@@H](CO)C(=O)N[C@@H](CCCCN)C(=O)N[C@@H](Cc1ccc(O)cc1)C(=O)N[C@@H](CC(C)C)C(=O)N[C@@H](CC(=O)O)C(=O)N[C@@H](CCC(=O)O)C(=O)N[C@@H](CCCNC(=N)N)C(=O)N[C@@H](C)C(=O)N[C@@H](C)C(=O)N[C@@H](CCC(N)=O)C(=O)N[C@@H](CC(=O)O)C(=O)N[C@@H](Cc1ccccc1)C(=O)N[C@H](C(=O)N[C@@H](CCC(N)=O)C(=O)N[C@@H](Cc1c[nH]c2ccccc12)C(=O)N[C@@H](CC(C)C)C(=O)N[C@@H](CC(C)C)C(=O)N[C@@H](CC(=O)O)C(=O)NCC(=O)NCC(=O)N1CCC[C@H]1C(=O)N[C@@H](CO)C(=O)N[C@@H](CO)C(=O)NCC(=O)N[C@@H](C)C(=O)N1CCC[C@H]1C(=O)N1CCC[C@H]1C(=O)N1CCC[C@H]1C(=O)N[C@@H](CO)C(N)=O)C(C)C)C(=O)O
In the case of B15, the “EC50 (cAMP reporter)” value with glucagon receptor worked out at 1.28 nM; with GLP-1 receptor, 0.008 nM; with GIP receptor, 0.026 nM.

These data come from patent US20120238493A1 (INDIANA UNIVERSITY RESEARCH AND TECHNOLOGY, published 2012).
